# Values of other authors as cited in patent US20250099434A1, “METHODS OF TREATING AMYLOID RELATED BRAIN DISORDERS USING NOVEL COMPOUNDS AND ANTIBODIES” (T3D Therapeutics, Inc., priority 2022, published 2025).
# B1: Gantenerumab: fully human IgG1 antibody binding a conformational epitope on Aβ fibrils (antibody, chains of the INN, looked up, V domains shown)
# VH: QVELVESGGGLVQPGGSLRLSCAASGFTFSSYAMSWVRQAPGKGLEWVSAINASGTRTYYADSVKGRFTISRDNSKNTLYLQMNSLRAEDTAVYYCARGKGNTHKPYGYVRYFDVWGQGTLVTVSS
# VL: DIVLTQSPATLSLSPGERATLSCRASQSVSSSYLAWYQQKPGQAPRLLIYGASSRATGVPARFSGSGSGTDFTLTISSLEPEDFATYYCLQIYNMPITFGQGTKVEIK
# Legend:
# [1] = human, in vivo; cited from earlier work
# [2] = EXPEDITION-3; cited from earlier work
# Aβ fibrils = conditions: cited from earlier work
# brain amyloid = conditions: cited from earlier work
molecule,measurement,setting,value
Crenezumab: humanized antibody with an IgG4 backbone recognizing multiple forms of aggregated Aβ,ARIA incidence,[1],low
solanezumab: humanized monoclonal IgG1 antibody directed against the mid-domain of the Aβ peptide,"incidence of vasogenic edema (ARIA-E), patients treated",[2],approximately 0.1%
B1,affinity to a conformational epitope on Aβ fibrils,Aβ fibrils,sub-nanomolar
same,"lowering of brain amyloid, average, florbetapir PET",brain amyloid; dosed as high as 1200 mg subcutaneously,59 centiloid
same,participants who developed ARIA-E,brain amyloid; extension studies,one-third
same,patients with ARIA,brain amyloid; highest dose,one third
